Here are results for three molecules from publication doi:10.1101/2025.06.02.657420, “Structure of the energy converting methyltransferase (Mtr) of Methanosarcina mazei in complex with an oxygen-stress responsive small protein” (bioRxiv, 2025).

Data set [1] has as its target T1, MtrE carrying a C-terminal TwinStrep-tag (Methanosarcina mazei, UniProt P80651 1-304).
T1 construct: MtrE of the Mtr complex, Methanosarcina mazei DSM 3647, locus MM_1547; the mtrE gene was amplified from chromosomal DNA with primers from the start codon to the last codon before the tag; The plasmid was put into wild-type M. mazei, so untagged chromosomal MtrE may stand in the trimeric complex beside the tagged copy; also called MtrE-TS; TS-tagged MtrE; source: M. mazei DSM 3647, from shuttle …
T1 sequence (looked up): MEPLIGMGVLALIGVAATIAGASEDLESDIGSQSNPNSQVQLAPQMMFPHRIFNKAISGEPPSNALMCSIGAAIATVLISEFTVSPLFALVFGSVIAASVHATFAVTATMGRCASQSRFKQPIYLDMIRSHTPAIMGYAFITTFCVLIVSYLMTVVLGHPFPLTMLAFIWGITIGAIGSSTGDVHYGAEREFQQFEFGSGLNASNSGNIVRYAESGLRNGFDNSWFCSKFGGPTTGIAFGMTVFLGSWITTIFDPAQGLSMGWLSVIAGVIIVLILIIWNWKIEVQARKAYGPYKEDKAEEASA
The data set is described as follows: cryo-EM structure; single-particle cryo-EM of the native Mtr complex purified from methanol-grown M. mazei through MtrE-TwinStrep (Strep-Tactin), LMNG-solubilised, 6 mg/mL with 1 mM CHAPSO; buffer 50 mM MOPS/NaOH pH 7.0, 10 mM MgCl2, 150 mM NaCl; C1 consensus map with local refinements of MtrA and MtrH. As to conditions: both partners purified.

Data set [2] concerns the molecule itself. The description is as above.

B1: MtrB, subunit B of the Mtr complex (natural protein, UniProt P80655 1-108, looked up)
chain: MSIVRIAPEINLVMDTESGTVTQERKDSIQYSMEPVFERVDKLDAIADDLVNSLSPSKPLLNTWPGRENTSYIAGIYSNSFYGIIVGLAFSGLLALIIYITRLMGGVV
notes: MtrB of the Mtr complex, Methanosarcina mazei DSM 3647 (Goe1); single-spanning stalk subunit; Three copies stand in the whole complex; also called chain B; helix B; source: endogenous, M. mazei membranes, LMNG-solubilised, co-purified with MtrE-TwinStrep on Strep-Tactin
For the molecule B1, the binding result in data set [1] was “binds”.

B2: MtrF, subunit F of the Mtr complex (natural protein, UniProt P80654 1-72, looked up)
chain: MAEEHEKGVPMVLAPQMGAIDATVESIRYRAQLIARNQKLDSGVAATGIIGFAAGFLFSLLMVIVLPVAVGL
notes: MtrF of the Mtr complex, Methanosarcina mazei DSM 3647 (Goe1); single-spanning stalk subunit; Three copies stand in the whole complex; also called chain F; helix F; source: endogenous, M. mazei membranes, LMNG-solubilised, co-purified with MtrE-TwinStrep on Strep-Tactin
Take B2: in data set [1], the binding result was “binds”.

B3: MtrG, subunit G of the Mtr complex (natural protein, UniProt P80656 1-72, looked up)
chain: MDGKAPAAFVEPGEFNEVMKRLDQIDEKVEFVNSEVAQRIGKKVGRDIGILYGGVIGLLLFLIYVQISSMFM
notes: MtrG of the Mtr complex, Methanosarcina mazei DSM 3647 (Goe1); single-spanning stalk subunit; Three copies stand in the whole complex and form a three-helix bundle in the membrane plane; also called chain G; source: endogenous, M. mazei membranes, LMNG-solubilised, co-purified with MtrE-TwinStrep on Strep-Tactin
On to B3, for which the binding result in data set [2] is on record as “binds”.
